Legend:
Recombinant Human β-NGF = Recombinant Human β-NGF (human, UniProt P01138 122-241); assay: cell-based or functional assay
[1] = target: T1, Recombinant Human EGF R/ErbB1 (human, UniProt P00533 25-645); assay: SPR (Biacore)
T1 construct: Bought reagent
Description: (§1) The BIACORE assay (Biacore, Inc, Piscataway, N.J.) determines the affinity of antibodies or DVD-Ig with kinetic measurements of on-rate and off-rate constants. Binding of antibodies or DVD-Ig to a target antigen (for example, a purified recombinant target antigen) was determined by surface plasmon resonance-based measurements with a Biacore® 1000 or 3000 instrument (Biacore® AB, Uppsala, Sweden) using running HBS-EP (10 mM HEPES [pH 7.4], 150 mM NaCl, 3 mM EDTA, and 0.005% surfactant P20) at 25° C. All chemicals were obtained from Biacore® AB (Uppsala, Sweden) or otherwise from a different source as described in the text. For example, approximately 5000 RU of goat anti-mouse IgG, (Fcγ), fragment specific polyclonal antibody (Pierce Biotechnology Inc, Rockford, Ill.) diluted in 10 mM sodium acetate (pH 4.5) was directly immobilized across a CM5 research grade biosensor chip using a standard amine coupling kit according to manufacturer's instructions and procedures at 25 μg/ml. Unreacted moieties on the biosensor surface were blocked with ethanolamine. Modified carboxymethyl dextran surface in flowcell 2 and 4 was used as a reaction surface. Unmodified carboxymethyl dextran without goat anti-mouse IgG in flow cell 1 and 3 was used as the reference surface. For kinetic analysis, rate equations derived from the 1:1 Langmuir binding model were fitted simultaneously to association and dissociation phases of all eight injections (using global fit analysis) with the use of Biaevaluation 4.0.1 software. Purified antibodies or DVD-Ig were diluted in HEPES-buffered saline for capture across goat anti-mouse IgG specific reaction surfaces. Antibodies or DVD-Ig to be captured as a ligand (25 μg/ml) were injected over reaction matrices at a flow rate of 5 μl/min. The association and dissociation rate constants, kₒₙ (M⁻¹s⁻¹) and koff (s⁻¹) were determined under a continuous flow rate of 25 μl/min. Rate constants were derived by making kinetic binding measurements at different antigen concentrations ranging from 10-200 nM. The equilibrium dissociation constant (M) of the reaction between antibodies or DVD-Igs and the target antigen was then calculated from the kinetic rate constants by the following formula: KD=koff/kₒₙ. Binding was recorded as a function of time and kinetic rate constants were calculated.

[2] = target: T2, Recombinant Human ErbB3/HER3 Fc Chimera (human, UniProt P21860 20-643); assay: SPR (Biacore)
T2 construct: Bought reagent; not shown: IgG Fc part of the bought chimera
Description: as §1

B1: DVD1333 (bispecific antibody, human IgG1, kappa)
heavy: not shown
light: DIQMTQSPSSLSASVGDRVTITCRASEDIYNALAWYQQKPGKAPKLLIYNTDTLHTGVPSRFSGSGSGTDYTLTISSLQPEDFATYFCQHYFHYPRTFGQGTKVEIKRTVAAPQAVLTQPSSLSAPPGASASLTCTLRSGFNVDSYRISWYQQKPGSPPQYLLRYKSDSDKQQGSGVPSRFSGSKDASANAGILLISGLQSEDEADYYCMIWHSSAWVFGGGTKLTVLRTVAAPSVFIFPPSDEQLKSGTASVVCLLNNFYPREAKVQWKVDNALQSGNSQESVTEQDSKDSTYSLSSTLTLSKADYEKHKVYACEVTHQGLSSPVTKSFNRGEC
B1 was tested, and the “N-Terminal VD NGF Inhibition Assay EC50” value (Recombinant Human β-NGF) was 0.6 pM.

B2: DVD1335 (bispecific antibody, human IgG1, kappa)
heavy: not shown
light: DIQMTQSPSSLSASVGDRVTITCRASEDIYNALAWYQQKPGKAPKLLIYNTDTLHTGVPSRFSGSGSGTDYTLTISSLQPEDFATYFCQHYFHYPRTFGQGTKVEIKRTVAAPQIVLSQSPAILSPSPGEKVTMTCRASSSVSYIHWFQQKPGSSPKPWIYATSNLASGVPVRFSGSGSGTSYSLTISRVEAEDAATYYCQQWTSNPPTFGGGTKLEIKRTVAAPSVFIFPPSDEQLKSGTASVVCLLNNFYPREAKVQWKVDNALQSGNSQESVTEQDSKDSTYSLSSTLTLSKADYEKHKVYACEVTHQGLSSPVTKSFNRGEC
With B2 the “N-Terminal VD NGF Inhibition Assay EC50” value (Recombinant Human β-NGF) was 0.3 pM.

B3: DVD1338 (bispecific antibody, human IgG1, kappa)
heavy: not shown
light: DIQMTQSPSSLSASVGDRVTITCQASQDISNYLNWYQQKPGKAPKLLIYDASNLETGVPSRFSGSGSGTDFTFTISSLQPEDIATYFCQHFDHLPLAFGGGTKVEIKRTVAAPDIQMTQSPSSLSASVGDRVTITCRASEDIYNALAWYQQKPGKAPKLLIYNTDTLHTGVPSRFSGSGSGTDYTLTISSLQPEDFATYFCQHYFHYPRTFGQGTKVEIKRTVAAPSVFIFPPSDEQLKSGTASVVCLLNNFYPREAKVQWKVDNALQSGNSQESVTEQDSKDSTYSLSSTLTLSKADYEKHKVYACEVTHQGLSSPVTKSFNRGEC
With B3 the “C-Terminal VD NGF Inhibition Assay EC50” value (Recombinant Human β-NGF) was 1270 pM.

B4: DVD1362 (bispecific antibody, human IgG1, kappa)
heavy: not shown
light: QSALTQPASVSGSPGQSITISCTGTSSDVGSYNVVSWYQQHPGKAPKLIIYEVSQRPSGVSNRFSGSKSGNTASLTISGLQTEDEADYYCCSYAGSSIFVIFGGGTKVTVLGQPKAAPDIQMTQSPSSLSASVGDRVTITCRASEDIYNALAWYQQKPGKAPKLLIYNTDTLHTGVPSRFSGSGSGTDYTLTISSLQPEDFATYFCQHYFHYPRTFGQGTKVEIKRTVAAPSVFIFPPSDEQLKSGTASVVCLLNNFYPREAKVQWKVDNALQSGNSQESVTEQDSKDSTYSLSSTLTLSKADYEKHKVYACEVTHQGLSSPVTKSFNRGEC
For B4, the “C-Terminal VD NGF Inhibition Assay EC50” value (Recombinant Human β-NGF) was 2.5 pM.

B5: DVD1369 (bispecific antibody, human IgG1, kappa)
heavy: not shown
light: DIQMTQSPSSLSASVGDRVTITCRASEDIYNALAWYQQKPGKAPKLLIYNTDTLHTGVPSRFSGSGSGTDYTLTISSLQPEDFATYFCQHYFHYPRTFGQGTKVEIKRTVAAPDIQMTQSPSSMSVSVGDRVTITCHSSQDINSNIGWLQQKPGKSFKGLIYHGTNLDDGVPSRFSGSGSGTDYTLTISSLQPEDFATYYCVQYAQFPWTFGGGTKLEIKRTVAAPSVFIFPPSDEQLKSGTASVVCLLNNFYPREAKVQWKVDNALQSGNSQESVTEQDSKDSTYSLSSTLTLSKADYEKHKVYACEVTHQGLSSPVTKSFNRGEC
notes: DVD-Ig; also called DVD1369H; DVD1369L
For B5, the Kd [1] was under 2.4 pM, the koff [1] was under 1e-06 s⁻¹ and the kon [1] was 410000 M⁻¹ s⁻¹. The “N-Terminal VD NGF Inhibition Assay EC50” value (Recombinant Human β-NGF) was 5.6 pM.

B6: DVD1370 (bispecific antibody, human IgG1, kappa)
heavy: not shown
light: DIQMTQSPSSMSVSVGDRVTITCHSSQDINSNIGWLQQKPGKSFKGLIYHGTNLDDGVPSRFSGSGSGTDYTLTISSLQPEDFATYYCVQYAQFPWTFGGGTKLEIKRTVAAPDIQMTQSPSSLSASVGDRVTITCRASEDIYNALAWYQQKPGKAPKLLIYNTDTLHTGVPSRFSGSGSGTDYTLTISSLQPEDFATYFCQHYFHYPRTFGQGTKVEIKRTVAAPSVFIFPPSDEQLKSGTASVVCLLNNFYPREAKVQWKVDNALQSGNSQESVTEQDSKDSTYSLSSTLTLSKADYEKHKVYACEVTHQGLSSPVTKSFNRGEC
notes: DVD-Ig; also called DVD1370H; DVD1370L
B6 was tested, and the Kd [1] was under 9.1 pM, the koff [1] was under 1e-06 s⁻¹ and the kon [1] was 110000 M⁻¹ s⁻¹. The “C-Terminal VD NGF Inhibition Assay EC50” value (Recombinant Human β-NGF) was 5960 pM.

B7: DVD1313 (bispecific antibody, human IgG1, lambda)
heavy: not shown
light: DIQMTQSPSSLSASVGDRVTITCRASEDIYNALAWYQQKPGKAPKLLIYNTDTLHTGVPSRFSGSGSGTDYTLTISSLQPEDFATYFCQHYFHYPRTFGQGTKVEIKRTVAAPQSVLTQPPSVSAAPGQKVTISCSGSSSNIENNHVSWYQQLPGTAPKLLIYDNNKRPSGIPDRFSGSKSGTSATLGITGLQTGDEADYYCETWDTSLSAGRVFGGGTKLTVLGQPKAAPSVTLFPPSSEELQANKATLVCLISDFYPGAVTVAWKADSSPVKAGVETTTPSKQSNNKYAASSYLSLTPEQWKSHRSYSCQVTHEGSTVEKTVAPTECS
With B7 the “N-Terminal VD NGF Inhibition Assay EC50” value (Recombinant Human β-NGF) was 0.9 pM.

B8: DVD1314 (bispecific antibody, human IgG1, kappa)
heavy: not shown
light: QSVLTQPPSVSAAPGQKVTISCSGSSSNIENNHVSWYQQLPGTAPKLLIYDNNKRPSGIPDRFSGSKSGTSATLGITGLQTGDEADYYCETWDTSLSAGRVFGGGTKLTVLGQPKAAPDIQMTQSPSSLSASVGDRVTITCRASEDIYNALAWYQQKPGKAPKLLIYNTDTLHTGVPSRFSGSGSGTDYTLTISSLQPEDFATYFCQHYFHYPRTFGQGTKVEIKRTVAAPSVFIFPPSDEQLKSGTASVVCLLNNFYPREAKVQWKVDNALQSGNSQESVTEQDSKDSTYSLSSTLTLSKADYEKHKVYACEVTHQGLSSPVTKSFNRGEC
For B8, the “C-Terminal VD NGF Inhibition Assay EC50” value (Recombinant Human β-NGF) was 0.3 pM.

B9: DVD1315 (bispecific antibody, human IgG1, kappa)
heavy: not shown
light: DIQMTQSPSSLSASVGDRVTITCRASEDIYNALAWYQQKPGKAPKLLIYNTDTLHTGVPSRFSGSGSGTDYTLTISSLQPEDFATYFCQHYFHYPRTFGQGTKVEIKRTVAAPDVVMTQSPLSLPVTPGEPASISCRSSQSLLHSNGFNYVDWYLQKPGQSPHLLIYFGSYRASGVPDRFSGSGSGTDFTLKISRVEAEDVGVYYCMQALQTPPWTFGQGTKVEIRRTVAAPSVFIFPPSDEQLKSGTASVVCLLNNFYPREAKVQWKVDNALQSGNSQESVTEQDSKDSTYSLSSTLTLSKADYEKHKVYACEVTHQGLSSPVTKSFNRGEC
With B9 the “N-Terminal VD NGF Inhibition Assay EC50” value (Recombinant Human β-NGF) was 2.2 pM.

B10: DVD1316 (bispecific antibody, human IgG1, kappa)
heavy: not shown
light: DVVMTQSPLSLPVTPGEPASISCRSSQSLLHSNGFNYVDWYLQKPGQSPHLLIYFGSYRASGVPDRFSGSGSGTDFTLKISRVEAEDVGVYYCMQALQTPPWTFGQGTKVEIRRTVAAPDIQMTQSPSSLSASVGDRVTITCRASEDIYNALAWYQQKPGKAPKLLIYNTDTLHTGVPSRFSGSGSGTDYTLTISSLQPEDFATYFCQHYFHYPRTFGQGTKVEIKRTVAAPSVFIFPPSDEQLKSGTASVVCLLNNFYPREAKVQWKVDNALQSGNSQESVTEQDSKDSTYSLSSTLTLSKADYEKHKVYACEVTHQGLSSPVTKSFNRGEC
With B10 the “C-Terminal VD NGF Inhibition Assay EC50” value (Recombinant Human β-NGF) was 874 pM.

B11: DVD1318 (bispecific antibody, human IgG1, kappa)
heavy: not shown
light: DIEMTQSPDSLAVSLGERATINCRSSQSVLYSSSNRNYLAWYQQNPGQPPKLLIYWASTRESGVPDRFSGSGSGTDFTLTISSLQAEDVAVYYCQQYYSTPRTFGQGTKVEIKRTVAAPDIQMTQSPSSLSASVGDRVTITCRASEDIYNALAWYQQKPGKAPKLLIYNTDTLHTGVPSRFSGSGSGTDYTLTISSLQPEDFATYFCQHYFHYPRTFGQGTKVEIKRTVAAPSVFIFPPSDEQLKSGTASVVCLLNNFYPREAKVQWKVDNALQSGNSQESVTEQDSKDSTYSLSSTLTLSKADYEKHKVYACEVTHQGLSSPVTKSFNRGEC
With B11 the “C-Terminal VD NGF Inhibition Assay EC50” value (Recombinant Human β-NGF) was 53.4 pM.

B12: AB063 (antibody, V domains shown)
VH: EVQLVESGGGLVQPGGSLRLSCAASGFTFSIYSMNWVRQAPGKGLEWVSYISSSSSTIYYADSVKGRFTISRDNAKNSLYLQMNSLRDEDTAVYYCARDRGDFDAFDIWGQGTMVTVSS
VL: DIQMTQSPSSLSASVGDRVTITCQASQDITNYLNWYQQKPGKAPKLLIYDASNLETGVPSRFSGSGSGTDFTFTISSLQPEDIATYNCQQCENFPITFGQGTRLEIKR
notes: Parent antibody; also called AB063VH
With B12 the Kd [2] was 1360 pM, the koff [2] was 0.000117 s⁻¹ and the kon [2] was 86600 M⁻¹ s⁻¹.

B13: DVD1320 (bispecific antibody, human IgG1, kappa)
heavy: not shown
light: DIQMTQSPSSLSASVGDRVTITCQASQDITNYLNWYQQKPGKAPKLLIYDASNLETGVPSRFSGSGSGTDFTFTISSLQPEDIATYNCQQCENFPITFGQGTRLEIKRTVAAPDIQMTQSPSSLSASVGDRVTITCRASEDIYNALAWYQQKPGKAPKLLIYNTDTLHTGVPSRFSGSGSGTDYTLTISSLQPEDFATYFCQHYFHYPRTFGQGTKVEIKRTVAAPSVFIFPPSDEQLKSGTASVVCLLNNFYPREAKVQWKVDNALQSGNSQESVTEQDSKDSTYSLSSTLTLSKADYEKHKVYACEVTHQGLSSPVTKSFNRGEC
notes: DVD-Ig; also called DVD1320H; DVD1320L
For B13, the Kd [2] was under 4.2 pM, the koff [2] was under 1e-06 s⁻¹ and the kon [2] was 240000 M⁻¹ s⁻¹.
